Reference: the DeepSol protein solubility set

Assay: soluble on expression in E. coli; label from the status in PepcDB or PDB records
In the case of “MSLDWHTLLTRERLGKALYSADELGRSPFHKDHDRIIFSGAFRRLGRKTQVHPVSSNDHIHTRLTHSLEVSCVGRSLGMRVGETLRDNLPDWCAPSDLGMIVQSACLAHDIGNPPFGHSGEDAIRHWFQQAAGRGWLDDMSDDERADFLNFEGNAQGFRVLTQLEYHQFDGGTRLTYATLGTYLKYPWSARHADALGYKKHKFGSYQSELPLLEQIARKLGLPQLEHQRWARHPLVYLMEAADDICYALIDLEDGLEMELLQYAEVEALLLDLVGEDLPETYRQLGPRDSRRRKLAILRGKAIEHLTNAAAHAFVEQQQALLAGQLPGDLVEHMHGPAKRCVLQAKDMARNKIFQDKRKTLHEIGAYTTLEILLNTFCGAALEQHGGRTPSFKSRRVLDLIGNNAPDPHASLHSAFLRMIDFIAGMTDSYASEMAREMTGRSSPTEGHHHHHH”, the “soluble on expression in E. coli” value is reported as “soluble”.
In the case of “MVIDFNRLNPGSTPATTGRTGSTAAGRPDATGADKAGQAATSAPKSGESVQISETAQNMQKVTDQLQTLPVVDNDKVARIKQAIADGTYQVDSERVASKLLDFESQR”, the “soluble on expression in E. coli” value is reported as “not soluble”.
In the case of “MSEDRSSNGHKSWLDKITQAFAHEPRNRQELLELLRDAHDNKLLDSEALSIVEGAIQVADLQVRDIMVPRSQMMSIRSTQTPKEFLPAIIEAAHSRYPVVGESLDDVMGVLLAKDLLPLILHNDERPFDIKELLRPATFVPESKRLNVLLREFRANRNHMAIVIDEYGGVAGLVTIEDVLEQIVGDIEDEHDVEEDSYIKPLPSGDFIVKALTPVDAFNDFFGSEFSDEEFDTVGGLVMSAFGHLPKRNEVVELGEFRFRVLNADSRRVHLLRLSPLQN”, the “soluble on expression in E. coli” value is reported as “soluble”.
In the case of “MGSDKIHHHHHHMLNSDLDIRLEPRIKELYRLHKERSANIDWSYHEFIPWDKAMSFKRVPWEESQVTLPEGVIVAVETALLTEVNLPWYTSHLDYTFKNSMEVINDFVRTWTAEEDQHSSLLETYLLVTRNVNPTRLHQLRRRVVESGWFPDFTNPLATMAYTSLQELATLVFYNNVARVAGAHDKDLATLLRRLAKDEALHYAFYRDTVKAHLELDPNFIVFFEDVIINFSMPGAIMPDFTERMKTIAIDTNYGPLQYFDQVLDVVVKYWDIENLQPTSEEAKQSQANIMKYHGRLKRIKDRQSAKNKIDA”, the “soluble on expression in E. coli” value is reported as “not soluble”.
With “HMTMEQFLTSLDMIRSGCAPKFKLKTEDLDRLRVGDFNFPPSQDLMCYTKCVALMAGTVNKKGEFNAPKALAQLPHLVPPEMMEMSRKSVEACRDTHKQFKESCERVYQTAKCFSENADGQFMWP” the “soluble on expression in E. coli” value was “soluble”.
With “KSIELYENNIPNGKTDAILIKNQTLISALKNPKQTKSSQRSSQSTNTQNDAICYLAFNSKIRPDDKDIFLLDKFGEKFVTAIVNFEEKTEVKINTLQEKEAVVLPAPQKFKPTDPKSVALVQGPSLIGIHANANEDRSTIKFLNW” the “soluble on expression in E. coli” value was “not soluble”.
With “MSEQKRRTIQIAISEDHYEELQKALELLKGTQLPFSTTVEQFVELILSNYVATSNKISSLAKSGFDVASLQQELEKIGNLSGVDDNLKGFLSELLKTSRNGFSNPNKDGKKNDDDNNSSSKS” the “soluble on expression in E. coli” value was “soluble”.
For “MRERGVAFFSGGKDGLYALYLAEKEGIEVPYLLTLKTSIGLSPHWENLSSLKALAENMGKKLLTFDMKYGSKALAEFISSLDVDYIIAGDVFLEDHLKWINLLAEKAGIKSFEPLWGKNTLELAKEMLNAGFKYSIIAVDKNKLEKTWLGYTFSSTRDIEIFIYENPTIDPLGEGGEFHTITLSSPLFKDEFTLEKISVEESERYWWMRFRVVGNDIKNVRVKGHNSRKDGLEHHHHHH”, the “soluble on expression in E. coli” value was “soluble”.
With “MSLRTIKNLRDMIEQSSKLFANKDAFRVKTKDNSYRGITFAEFKNDIDAFGTALLDLLGTEKGFVAVIGENRYEWCVTYLATINGVGVVIPLDKELPLPELENLLKQSNANAIVYSGKFHDAIKEMSSRLSNIKYFINMNTNEHEDDKFLSFWVLLEKGKKLLESGKKDYLNAPIDENAMSAMIFTSGTTGQAKAVMLSHKNICSNMMAVSASVYMDSTDSVLSILPLHHTYECTAGFLTMIYNGATITFNEGLKYIGKNLKEAQPTILILVPLILESMYNKIWEQASKDKSLKFKLKAGLFISNLLYKVFKIDIRRKLFKSVIDNVGGKLRLVISGAAALDPEVAKGFEAMGIKVLQGYGLTEASPIVAVNRDKSYRHDSVGLPLPGLDVEIINPDKEGFGEIIVKGDSVMLGYYNNDDATKAVLKDGWLYTGDLGRMDEKGFIYITGRKKNIIVTKTGKNIFPEEVEAYLNKSPYIKESLVSGRENDKNDETIVVAQIVPDMDAIKAKLKTDTVPSPEEVYKLIKAEIRAINKNMPVYKRVVDITIRENEFAKTSSKKIKRYLEKTNEGHHHHHH” the “soluble on expression in E. coli” value was “soluble”.
With “MVKTAVLMATYNGEIFISEQLDSIRQQTLKPDYVLLRDDCSTDETVNVVNNYIAKHELEGWKIVKNDKNLGWRLNFRQLLIDVLAYEVDYVFFSDQDDIWYLDKNERQFAIMSDKPQIEVLSADVDIKTMSTEASVPHFLTFSSSDRISQYPKVYDYQTFRPGWTIAMKRDFAQAIADNWTFGANISHDNLIETTASIIGNGYNLNESVGVHIRYGGNASGNSKFVLNWKSPKTQHITGLKTFVDFYETMQKVVNKYQNDVALNQRLAFEKERLEASKLSLIHNSAFVIKNWRLYNSNSGRMRDLLFAFKKLEHHHHHH” the “soluble on expression in E. coli” value was “soluble”.
For “MGSDKIHHHHHHMSKIVEVSKSPYAKLKTIPVGSVRVNGFMGKYFETLVNVTLPTQYDLLENTGRLDNFRIAAGKMEGSYKTLFPFDDTDVYKWAETVSFALANRKLPELEKILDSVIEEVKAAQDEDGYLGTYLSGDRKKERWTNLAWNHELYNAGHLIQAAVAHRRVTGKNTLFEVAKRFADHIYNTFGPEKKEGAPGHPEVEMALVELYRETGDRKYLDLARYFIYARGKGLASVPRNPGPEYFIDHKPFVELEEITGHAVRALYLCSGATDLYLETGDEKIWQALNRLWENFVTKKMYITGGAGSRHDWESFGEEYELPNRRSYAESCASIANFMWNFRMLLATGDGKFADVMEQVLYNGLLSGISLDGKHYFYFNPLEDYGRTRRQKWFDCACCPPNLARFIVSFPGYMYTTSDDGVQVHLYEKSTARLDFKGSVVEIEQETDYPWSGEVAFTIKTDIEEPFSIYLRLPSWADDFVLRVDGKAVIAKPQNGYVKLSQSWKGKHTVELSLPMKAVFIEAHPFVRDDLGKAAVKRGPVVYCIEQADNPDFHVWTLVLNSESLKEEKGKILDREAVFLKGTGRALDISEWEGKLYRKLSEVREKTVEFTLIPYHMWANREPGAMAVWLKR”, the “soluble on expression in E. coli” value was “not soluble”.
With “MIIILRYNKQVFYKYKGDSVMRNRTSVMRKRQMQEVTAKRTKLGKIAMTQKLEATEKQFIVTQGQPCQTQLAEGKFLSYQYNDQIFVHGGRCIELVDSNIVSTAHASLLITILLEGKLSFGYDDLQFDLDASDTPQGVVVNLIHPANFRRSLIENNQINKINILVKPQWLEYRSEESCCSTAFFETHQAFYHLELNQALTELATELTNRDTPHRFQDKLEIESLIYQILFHATQQMPQDFCPQNTNSYRDK” the “soluble on expression in E. coli” value was “not soluble”.
With “MSDKPEDENTNENPGRRRFLGGMAALGAGVTLSGYVSAHERPPAEAEKHHLVGPALDRALRENVKTVVVIYAENRSFNNLFGNFPGVQKPLSSVRPADYVQRDRNGTLLDKLPPAWGGVLQVGPQTVDGVTYPVGVQFQENLPNAPFPLKGPNAEDLPLSLVTRDLWHVFYQNQMQINDGKNDRFVAWADAGGLTMGNYAQTQYSLRLWDVAKEFVLCDNFFQGAFGGSFLNHQYLISATAPIYPNAADSPAKSQIASLQSMNPLDSRLKPLDKSPASAMEGPPQFGPSAITPDNYAVNTLAPPYWPTWLRDPQNPDYSKPDLANVLVPQSHEHIGDKLSKRNVDWAWYAGAWQVTLDEFKDSTGIPKIPNFQYHHQPFNYFKQQGPQNPEERKKRLRDGGLGDESSTNRFLADAEAGKLPAVAFYKPQGNLNMHAGYADVASGDRHIDRVIKVLRNSPQWDNMVIVVTVDENGGWWDHVAPPKGDRFGPGTRIPALVISPFARKGKVDHTVYDTASILRLITRVHGLEKLDGLKRRDEAMIARGQAPMGDLTNALHFPALEHHHHHH” the “soluble on expression in E. coli” value was “soluble”.
With “MSMLPTFGFTQEQVACVCEVLQQGGNIERLGRFLWSLPACEHLHKNESVLKAKAVVAFHRGNFRELYKILESHQFSPHNHAKLQQLWLKAHYIEAEKLRGRPLGAVGKYRVRRKFPLPRSIWDGEETSYCFKEKSRSVLREWYAHNPYPSPREKRELTEATGLTTTQVSNWFKNRRQRDRAAEAKERENNENSNSNSHNPLNGSGKSVLGSSEDEKTPSGTPDHSSSSPALLLSPPPPGLPSLHSLGHPPGPSAVPVPVPGGGGADPLQHHHGLQDSILNPMSANLVDLGS” the “soluble on expression in E. coli” value was “soluble”.
